Results published in the supplement of paper PMC9170038.

Tested on: MS2 coat protein
Experiment: apparent KD of MS2 coat protein; designed switch direction (-1 OFF switch, 1 ON switch): -1; higher = weaker reporter binding
Summary of the method: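 The buffer was Tris-HCl pH 7.5 with KCl, MgCl2, BSA, DTT, tRNA and Tween-20. In it, SNAP-549-labelled MS2 coat protein was titrated in doubling steps from 0.7 or 1.5 nM to 3 µM over chip-bound RNA switches transcribed by stalled E. coli RNA polymerase on Illumina chips. Apparent KD is the per-design median over clusters of curve fits to normalised fluorescence.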

[1] = Eterna round: R95, input ligand: FMN 200 uM
[2] = Eterna round: R95, input ligand: microRNA oligo, concentration not stated
[3] = Eterna round: R95, input ligand: none
[4] = input ligand: microRNA oligo, concentration not stated

| Sequence | apparent KD of MS2 coat protein [1] | apparent KD of MS2 coat protein [2] | apparent KD of MS2 coat protein [3] | apparent KD of MS2 coat protein (input ligand: FMN 200 uM) | apparent KD of MS2 coat protein (input ligand: none) | apparent KD of MS2 coat protein [4] |
| --- | --- | --- | --- | --- | --- | --- |
| AGUACAUUCACGAAAGUGAAUGUACAAUAAGCUUGUGGAACAUGAGGAUCACCCAUGUCCUCAUAAGCUCGUCUUAU [Mat - Sensor v3 - Turn-off var 2 - D31] (puzzle: Sensor v3, turn-off variant 2) | 0.0161 µM | 0.0687 µM | 0.0146 µM |  |  |  |
| GAUUAACAUGAGGAUCACCCAUGUGAGGAUAUGGAAUGGCUCAUUGUCUGAUUUCCUUCUAGAAGGCACAUCUU [1986#4c] (Eterna round: R97, puzzle: Exclusion 1) |  |  |  | 0.0722 µM | 0.0633 µM |  |
| AAUGAUUGACGAGGAUAUUGUGUUAGAUCACGACGAGAAGGCGUCUGUCACAUGAGGAUCACCCAUGUGAGCCUGGUGGAUGGG [Ex NG1 #79] (Eterna round: R96, puzzle: Exclusion NG 1) |  |  |  | 0.0417 µM | 0.0267 µM | 0.0223 µM |
| CUAGUCCGAGGAUAUAUUAUGUGAUACAUGAGGAUCACCCAUGUUAUAUGAUGGAUGUUAGUAGAAGGCGGACUAG [Mat - Exclusion 5 - JL mod - D81] (puzzle: Exclusion 5) | 0.0863 µM | 0.0966 µM | 0.0793 µM |  |  |  |
| CCCUCACAUGAGGAUCACCCAUGUCAGGAUAUCUCAGUGCGUCCACACGGACACAUCAAGAGAAGGGACAAAAC [Maceedesbi] (Eterna round: R97, puzzle: Exclusion 1) |  |  |  | 0.0263 µM | 0.0186 µM |  |
| GAGAACGUAGGAUAUACAUGAGGAUCACCCAUGUGAGGAAGGAGUAGGAAGAGUGGAAGUAGAAGGACGGAGAG [JR_Exclu3_Sub072] (puzzle: Exclusion 3) | 0.0474 µM | 0.0219 µM | 0.0349 µM |  |  |  |
| CCAGUGUAAGGAUAUGUAUACGUCUCUCUGGUAUGAGGGCGGCAGAAGGUACAUGAGGAUCACCCAUGUCAUAU [Eternabot (L2) Solution 94] (Eterna round: R97, puzzle: Exclusion 4) |  |  |  | 0.0373 µM | 0.0225 µM |  |
| GACUUCUCUGAGGAUAUUGCAUCAUACGAUUUAUAAGAAGGCAGAACAUGAGGAUCACCCAUGUGGGUUUUUAG [Bingo-Bango-30] (Eterna round: R97, puzzle: Exclusion 6) |  |  |  | 0.102 µM | 0.055 µM |  |
| ACAUGAGGAUCACCCAUGUACACGUAAUGGCUCAUGUAGAGUGAGGAUAUGUGAGACGAACGAGAACAGAAGGCACAAGACAGG [Deportation 9 - Jieux - Exclusion NG 3] (Eterna round: R96, puzzle: Exclusion NG 3) |  |  |  | 0.0291 µM | 0.0359 µM | 0.0301 µM |
| CGGUACUGAGGAUAUACAUGAGGAUCACCCAUGUGUUCUAGCUAGCGUACUGGCAUUUGUAGAAGGCGGUGCUG [JL-ex3-3.23 Brourd mod] (puzzle: Exclusion 3) |  | 0.0164 µM |  |  |  |  |
| AAAUUAGCAAGUAGGUCCGACAUGAGGAUCACCCAUGUAAUCUAAUAUUACGCUGCAUGAGAGUGCGCUCGUCUUAG [Sensor-V1 #17] (Eterna round: R97, puzzle: Sensor, turn-off variant 1) |  |  |  | 0.241 µM | 0.337 µM |  |
| GAUUAUGCGAGCUUUAGGGACAUGAGGAUCACCCAUGUUCGUCUUAUUGGUCUGAGUGCACUAACAUACCUAAAUCU [JMF 31] (puzzle: Sensor v3, turn-off variant 1) | 0.0231 µM | 0.0373 µM | 0.0228 µM |  |  |  |
| GAAGUUAGAGGAUAUACAUGAGGAUCACCCAUGUAUGAAGUUAACUUUGUAUAUAAAUGUAGAAGGCUAACUUC [-21.1, -19.6 kcal, 36% A] (Eterna round: R97, puzzle: Exclusion 3) |  |  |  | 0.0416 µM | 0.0256 µM |  |
| GAUUAUGCGAGCUUUAGGGACAUGAGGAUCACCCAUGUUCGUCUUGUUGAUCUAGGUGCGCUAACAUACCUAAAUCU [JMF 48] (puzzle: Sensor v3, turn-off variant 1) | 0.0235 µM | 0.0305 µM | 0.0234 µM |  |  |  |
| UUGGAGAUAGGAUAUACGAGGAGAGUAGAGGGAAGGUGAGGACAUGAGGAUCACCCAUGUAGAAGGAUCAGGAG [JR_Exclu2_Sub067] (puzzle: Exclusion 2) | 0.0348 µM | 0.0348 µM | 0.0476 µM |  |  |  |
| UAUAACAAGCCAGAUCCUAACAUGAGGAUCACCCAUGUGCUCGUCUGAUUUUGUACUAUCAUGAGAGUGAUAGUACU [Level Boss var2-03] (puzzle: Sensor v3, turn-off variant 1) | 0.181 µM | 0.488 µM | 0.192 µM |  |  |  |
